In patent CN114409779A:

Biological target: 重组人NogoA蛋白 (recombinant human NogoA protein) (human) (UniProt Q9NQC3)
Experiment: BLI (Gator label-free analyser), antibody captured on Protein A probe, NogoA at 10, 5, 2.5 and 0 ug/mL

Sequence of UniProt Q9NQC3 (Q9NQC3 1055-1120 limits assumed): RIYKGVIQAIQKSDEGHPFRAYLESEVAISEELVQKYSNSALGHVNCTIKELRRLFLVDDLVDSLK

Kd: 8.2 pM
B1: NogoAD1-1 (antibody, part only; not given: Light chain variable domain, V domains shown, part only)
VH: EVLLVESQQTPVKPGGSLKASCAGSQSVFLTAAYSWVRPTPEKLLEWVATISYGSPNTYYPDSVKGRYNEKFKGKATLTVETSSSTAYMQLSSLTSEDTAVYFCARRSYGEDSWFSYWGQGTLVTVSS
